Experimental data from paper PMC7017353, “Delineating the Molecular Basis of the Calmodulin–bMunc13-2 Interaction by Cross-Linking/Mass Spectrometry—Evidence for a Novel CaM Binding Motif in bMunc13-2” (Cells, 2020).
Where no end group is shown, it is not given here. [ ]: non-standard residue; d: D form. Bpa = N[C@@H](Cc1ccc(C(=O)c2ccccc2)cc1)C(=O)O

Target: recombinant CaM (UniProt P0DP23 1-149)
Test: cross-linking; photoaffinity labelling (PAL)-based competition: CaM (5 µM) with segment-C-Bpa or segment-CS-Bpa (5 µM), competitor peptides 0–250 µM; 50 mM HEPES pH 7.2, 150 mM KCl, 5 mM DTT, 2 h RT, 200 µM Ca2+ or 2 mM EGTA; UV; SDS-PAGE and MALDI-TOF-MS
Details: both partners purified

B1: Segment-CS-Bpa (peptide)
peptide: CINN[Bpa]KNVLREKRLRQKKLLQELV
notes: source: synthetic peptide
binding result: binds
